Read-outs that look alike come from different tables or passages of the source.

One data set concerns the target T1, MK2 (Homo sapiens, UniProt P49137).
T1 construct: made in house; host or cells: E. coli BL21 (DE3)
The experiment in a line: MK2 kinase kinetics, continuous pyruvate kinase/lactate dehydrogenase coupled assay at 340 nm. The settings on record: for Km: 25° C. The data set is classed as biochemical. The method, then: Activation of MK2 Constructs. The MK2 constructs 41–400 and 41–364 were activated by the phosphorylation of the constructs by p38 MAP kinase. The activation was done in 20 mM HEPES (pH 7.5), 10 mM MgCl2, 2 mM DTT, 0.50 mM ATP, 0.2 mg/ml MK2 and 0.125 μg activated p38. The reaction was incubated at 25° C. for 1–2 hour then placed on ice to be used for kinetic analysis.
Kinase Kinetics. The rate of MK2 kinase was characterized in 20 mM HEPES (pH 7.5), 10 mM MgCl2, 2 mM DTT and 100 mM NaCl. The kinetics was followed by linking the turnover of ATP is to the turnover of NADH to NAD. This was followed spectrophotometrically at 340 nm. The continuos assay contained 20 units pyruvate kinase, 30 units lactate dehydrogenase, 0.25 mM NADH, 2 mM PEP and 1.6 to 8.0 μg/mL MK2. For determining the apparent Km for ATP, the ATP concentration was varied from 0.005 to 0.25 mM while the peptide was held constant at 0.2 mM for activated MK-2 or 1.0 mM for the constitutively active form of MK-2 (41–364). For determining the apparent Km for LSP-1, the LSP-1 concentration was varied from 0.01 to 0.5 mM while ATP was held constant at 2 mM. The kinetic analysis was carried out in a 96-well plate at 25° C., on a Molecular Devices spectrophotometer.
Substrate Kinetics. Peptide LSP, based on the protein substrate of MK-2 lymphocyte/leukocyte specific protein, was used for the investigation of the kinetic mechanism for the enzyme MK-2. Data was fit to equation 1 for normal Michaelis-Menten kinetics. v=Vmax[S]/Km+[S] (1) where [S] is the substrate, Vmax is the maximum enzyme velocity, Km is the Michaelis constant.

Data set [1] relates to LPS-induced cytokine synthesis in human monocytes. The following applies: cited from earlier work.
In data set [2] the test system is MAP kinase activated protein kinase 2 (MK2). The settings on record: cited from earlier work.
Where [3] appears, read: p38 + (construct activated by p38 phosphorylation).
Where [4] appears, read: p38 + (construct activated by p38 phosphorylation), ATP held at 2 mM, read-out: Apparent Km (LSP-1).
The mark [5] stands for this setting: p38 activated / phosphorylated by p38.

T1 sequence (P49137 with tags, fused parts or gaps): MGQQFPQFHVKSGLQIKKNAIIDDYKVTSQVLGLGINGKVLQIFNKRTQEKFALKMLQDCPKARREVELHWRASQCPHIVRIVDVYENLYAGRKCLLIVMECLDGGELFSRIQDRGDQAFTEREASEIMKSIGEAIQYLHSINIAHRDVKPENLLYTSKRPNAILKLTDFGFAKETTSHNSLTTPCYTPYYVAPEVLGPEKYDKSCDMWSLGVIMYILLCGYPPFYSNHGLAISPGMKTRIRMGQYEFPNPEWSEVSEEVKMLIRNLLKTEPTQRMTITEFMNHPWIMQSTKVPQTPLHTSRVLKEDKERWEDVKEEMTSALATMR

On to “41-364: constitutively active MK2 polypeptide, residues 41–364, in which a portion of the C-terminal autoinhibitory domain was removed [Construct 41-364]”, for which the maximal velocity (Vmax) – broadly, the top rate of the reaction or transport when substrate is in excess – in the data set with MK2 (not phosphorylated) is 0.076 µmol/min/mg; with MK2 (setting [3]), 11 + 14 μmole/min/mg; with MK2 (setting [5]), 11 µmol/min/mg; with MK2 (p38 − (not phosphorylated)), 0.076 + 0.004 μmole/min/mg. In addition, the Michaelis-Menten constant (Km) (commonly the concentration of substrate that gives half-maximal velocity) stood at 20 µM in the data set with MK2 (setting [4]); 584 µM with MK2 (p38 − (not phosphorylated), ATP held at 2 mM, read-out: Apparent Km (LSP-1)); 7 µM with MK2 (p38 − (not phosphorylated), LSP-1 peptide held at 1.0 mM, listed as MK2 41-364, read-out: Apparent Km (ATP)); 15 µM in the data set with MK2 (p38 − (not phosphorylated), LSP-1 peptide held at 1.0 mM, read-out: Apparent Km (ATP)). For the same molecule, in the data set with MK2 (unphosphorylated MK2 41-364), the “Km for LSP-1 peptide substrate, fold higher compared to p38 phosphorylated MK2 41-400” value is 45 fold. In the data set with MK2 (unphosphorylated MK2 41-364), the “Vmax, fold lower compared to p38 phosphorylated MK2 41-400” value is 100 fold. The “binding of the peptide substrate LSP-1, fold weaker than to p38 activated MK2 41-400” value with MK2 (unphosphorylated MK2 41-364 vs p38 activated MK2 41-400) is listed as “more than 40 fold”.
On to “41-400: MK2 construct, amino acid residues 41–400, lacking the first 40 residues of the proline rich domain [Construct 41-400]”, for which the Vmax in the data set with MK2 (setting [3]) is 8.9 + 0.1 μmole/min/mg; in the data set with MK2 (setting [5]), 8.9 µmol/min/mg; with MK2 (p38 − (not phosphorylated)), “no activity”. For the same molecule, the Km with MK2 (setting [4]) was 13 µM; with MK2 (p38 + (construct activated by p38 phosphorylation), LSP-1 peptide held at 0.2 mM, listed as MK2 41-400, read-out: Apparent Km (ATP)), 15 µM; with MK2 (p38 + (construct activated by p38 phosphorylation), LSP-1 peptide held at 0.2 mM, read-out: Apparent Km (ATP)), 7 µM.
Consider `C[S+]([O-])c1ccc(-c2nc(-c3ccncc3)c(-c3ccc(F)cc3)[nH]2)cc1` (stereo not shown) [SB203580], for which the LPS-induced cytokine synthesis entry in data set [1] is given as “inhibits LPS-induced cytokine synthesis”. The “activation of MK2” value in data set [2] is “prevents the activation”.

The record behind these values is patent US7167802B2, “Methods for identifying agents that interact with MAP kinase activated protein kinase 2” (Wyeth, priority 2002, dated 2007).
